Measurements published in patent US20210070843A1.
Positions count from the first letter of the chain named.

B1: S06 (antibody, V domains shown)
VH: EVQLVESGGGLVQPGGSLRLSCAASGFTIGGGWIHWVRQAPGKGLEWVAFIGPYGGSTFYADSVKGRFTISADTSKNTAYLQMNSLRAEDTAVYYCARFNFGFWNHMDYWGQGTLVTVSS
VL: DIQMTQSPSSLSASVGDRVTITCRASQDVSSWVAWYQQKPGKAPKLLIYGTTFLHSGVPSRFSGSGSGTDFTLTISSLQPEDFATYYCQQYYNGPLTFGQGTKVEIKR
B2: Do1 (antibody, V domains shown)
VH: EVQLVESGGGLVQPGGSLRLSCAASGFTIDNGSIHWVRQAPGKGLEWVAWIGPYGGFTSYADSVKGRFTISADTSKNTAYLQMNSLRAEDTAVYYCARFYGSGSSSFMDYWGQGTLVTVSS
VL: B1 VL with S30W, S31G, W32G, Y49F, G50F, T51S, T52R, F53Y, H55Y
B3: S40 (antibody, V domains shown)
VH: EVQLVESGGGLVQPGGSLRLSCAASGFTIGDFGIHWVRQAPGKGLEWVAGIWPFGGYTYYADSVKGRFTISADTSKNTAYLQMNSLRAEDTAVYYCARFVNWDGDYMDYWGQGTLVTVSS
VL: B1 VL with S30G, S31F, W32Y, Y49S, G50W, T51S, T52S, F53Y, H55Y, G94Y
B4: S11 (antibody, V domains shown)
VH: B1 VH with G30D, G31N, W33G, F50W, F59S, N100G, F103L, W104H, N105D, H106L
VL: B1 VL with S30Y, G50Y, T51S, T52S, H55Y
B5: S51 (antibody, V domains shown)
VH: EVQLVESGGGLVQPGGSLRLSCAASGFTIDDWGIHWVRQAPGKGLEWVAWIWPYGGFTSYADSVKGRFTISADTSKNTAYLQMNSLRAEDTAVYYCARFGFVDWNLMDYWGQGTLVTVSS
VL: B1 VL with S30W, S31G, W32Y, Y49S, G50Y, F53Y, H55Y, G94S, L96V
B6: S29 (antibody, V domains shown)
VH: B3 VH with G30S, F32Y, G33W, G50S, F54S, V100N, N101W, W102I, D103V, D105H
VL: B1 VL with S30F, S31G, W32G, G50W, T51S, T52S, F53W, H55Y, N93D, L96I
B7: P14 (antibody, V domains shown)
VH: B3 VH
VL: B1 VL with S30G, S31F, W32Y, Y49S, G50W, T51S, T52S, F53Y, H55Y, G94Y
B8: S10 (antibody, V domains shown)
VH: EVQLVESGGGLVQPGGSLRLSCAASGFTIGGYGIHWVRQAPGKGLEWVASIGPSWGFTFYADSVKGRFTISADTSKNTAYLQMNSLRAEDTAVYYCARFNWVINGVTDYWGQGTLVTVSS
VL: B1 VL with S31Y, W32Y, Y49F, G50W, T51S, H55Y, N93D, G94S, L96M
B9: S48 (antibody, V domains shown)
VH: B1 VH with A24V, G31D, W33S, F50S, F59Y, N100H, F101Y, F103Y, H106N
VL: B1 VL with S30G, S31W, T52R, F53W, H55Y, L78V, N93S, L96I
B10: P28 (antibody, V domains shown)
VH: EVQLVESGGGLVQPGGSLRLSCAASGFTINNSGIHWVRQAPGKGLEWVASIWPSGGYTYYADSVKGRFTISADTSKNTAYLQMNSLRAEDTAVYYCARFNSSYSSGLMDYWGQGTLVTVSS
VL: B1 VL with S30W, S31Y, W32S, G50F, T51A, F53G, H55Y, Y92F, G94W, L96V
B11: S45 (antibody, V domains shown)
VH: EVQLVESGGGLVQPGGSLRLSCAASGFTINGSSIHWVRQAPGKGLEWVAYIGPFGGSTYYADSVKGRFTISADTSKNTAYLQMNSLRAEDTAVYYCARFWHGYNLYMDYWGQGTLVTVSS
VL: B1 VL with S30G, S31W, T51A, T52R, H55Y, Y92F
B12: P25 (antibody, V domains shown)
VH: EVQLVESGGGLVQPGGSLRLSCAASGFTISNGGIHWVRQAPGKGLEWVAGIGPYGGYTYYADSVKGRFTISADTSKNTAYLQTNSLRAEDTAVYYCARFYGYSGIMDYWGQGTLVTVSS
VL: B1 VL with S30W, S31G, W32Y, Y49S, T51S, T52R, F53S, H55Y, G94Y, L96I
B13: P10 (antibody, V domains shown)
VH: B3 VH with G30D, D31N, F32S, G33W, G50S, V100G, W102V, D103F, G104D, D105W
VL: DIQMTQSPSSLSASVGDRVTITCRASQDVNSNVAWYQQKPGKAPKLLIYWAGYLYSGVPSRFSGSGSGTDFTLTISSLQPEDFATYYCQQSSDFPITFGQGTKVEIKR
B14: P38 (antibody, V domains shown)
VH: EVQLVESGGGLVQPGGSLRLSCAASGFTINDGGIHWVRQAPGKGLEWVAFIGPYGGSTFYADSVKGRFTISADTSKNTAYLQMNSLRAEDTAVYYCAGFIGDYSSYHGVMDYWGQGTLVTVSS
VL: B13 VL with N30W, S31G, N32Y, Y49S, A51P, Y53G, S91Y, D93S, I96L

Molecular target: cell surface-expressed H3N2 WN/05 HA trimer (influenza A virus A/Wisconsin/67/2005 (H3N2))
Test: flow cytometry, HA-expressing 293T

Binder | max. MFI [MFI] | EC50 [µg/mL]
B1 | 135 | –
B2 | 278 | –
B3 | 109 | –
B4 | 207 | –
B5 | 340 | –
B6 | 188 | –
B7 | 154 | –
B8 | 511 | 7.86
B9 | 122 | –
B10 | 127 | –
B11 | 529 | 15.8
B12 | 152 | –
B13 | 117 | –
B14 | 137 | –

Molecular target: full-length H1 A/California/07/2009 HA expressed on 293T cells (influenza A virus A/California/07/2009 (H1N1))
Test: flow cytometry, HA-expressing 293T

Binder | EC50 [µg/mL] | max. MFI [MFI]
B1 | 3.98 | 1650
B2 | – | 228
B3 | 0.46 | 8630
B4 | 4.07 | 5600
B5 | 0.754 | 6290
B6 | 4.22 | 6280
B7 | 0.125 | 8340
B8 | 3.38 | 10700
B9 | 4.86 | 6240
B10 | – | 168
B11 | 4.47 | 2470
B12 | 0.761 | 2380
B13 | 0.41 | 9660
B14 | 3.16 | 988

Molecular target: full-length H5 A/Vietnam/1203/2004 HA expressed on 293T cells (influenza A virus A/Vietnam/1203/2004 (H5N1))
Test: flow cytometry, HA-expressing 293T

Binder | max. MFI [MFI] | EC50 [µg/mL]
B1 | 249 | –
B2 | 313 | –
B3 | 724 | 2.85
B4 | 434 | –
B5 | 452 | –
B6 | 367 | –
B7 | 328 | –
B8 | 1100 | 0.79
B9 | 875 | 1.92
B10 | 193 | –
B11 | 451 | –
B12 | 318 | –
B13 | 517 | –
B14 | 240 | –

Molecular target: recombinant H5N1 VN/04 HA trimer (hemagglutinin ectodomain of A/Vietnam/1203/2004) (influenza A virus A/Vietnam/1203/2004 (H5N1))
Test: ELISA, coated HA

Binder | EC50 [µg/mL]
B1 | 0.311
B2 | > 10
B4 | 0.0781
B6 | > 10
B8 | 0.259
B9 | 0.0737
B11 | 0.23

Molecular target: cell surface-expressed H3N2 WN/05 HA trimer (influenza A virus A/Wisconsin/67/2005 (H3N2))
Test: cell-based or functional assay

Binder | IC50 of pseudo virus neutralization H3N2 WN/05 [µg/mL]
B1 | > 20
B2 | > 20
B3 | > 20
B4 | > 20
B5 | > 20
B6 | > 20
B7 | > 20
B8 | > 20
B9 | > 20
B10 | > 20
B11 | > 20
B12 | > 20
B13 | > 20
B14 | > 20

Molecular target: full-length H1 A/California/07/2009 HA expressed on 293T cells (influenza A virus A/California/07/2009 (H1N1))
Test: cell-based or functional assay

Binder | IC50 of pseudo virus neutralization H1N1 CA/09 [µg/mL] | IC50 of true virus neutralization H1N1 CA/09 [µg/mL]
B1 | > 100 | > 500
B2 | > 100 | > 500
B3 | > 100 | 436
B4 | > 100 | > 500
B5 | > 100 | > 500
B6 | 0.672 | > 500
B7 | > 100 | 4390
B8 | 0.349 | 1560
B9 | > 100 | > 500
B10 | > 100 | > 500
B11 | > 100 | > 500
B12 | > 100 | > 500
B13 | 0.465 | > 500
B14 | > 100 | > 500

Molecular target: full-length H5 A/Vietnam/1203/2004 HA expressed on 293T cells (influenza A virus A/Vietnam/1203/2004 (H5N1))
Test: cell-based or functional assay

Binder | IC50 of pseudo virus neutralization H5N1 VN/04 [µg/mL]
B1 | > 200
B2 | > 200
B3 | > 200
B4 | > 200
B5 | > 200
B6 | > 200
B7 | > 200
B8 | 0.267
B9 | > 200
B10 | > 200
B11 | > 200
B12 | > 200
B13 | > 200
B14 | > 200

Molecular target: H7 A/Anhui/1-BALF_RG17/2013 HA on H7N9 AH/13 pseudo virus (influenza A virus A/Anhui/1-BALF_RG17/2013 (H7N9))
Test: cell-based or functional assay

Binder | IC50 of pseudo virus neutralization H7N9 AH/13 [µg/mL]
B1 | > 200
B2 | > 200
B3 | > 200
B4 | > 200
B5 | > 200
B6 | > 200
B7 | > 200
B8 | > 200
B9 | > 200
B10 | > 200
B11 | > 200
B12 | > 200
B13 | > 200
B14 | > 200
